{"source": "patent US20160136234A1", "assay_in_all_cases": "cell-based or functional assay", "key": {"BTK(R28H) (h) (human)": {"biological_target": "BTK(R28H) (h) (human) (UniProt Q06187)"}, "BrSK2 (h) (human)": {"biological_target": "T1, BrSK2 (h) (human) (UniProt Q8IWQ3)", "T1 sequence (looked up)": "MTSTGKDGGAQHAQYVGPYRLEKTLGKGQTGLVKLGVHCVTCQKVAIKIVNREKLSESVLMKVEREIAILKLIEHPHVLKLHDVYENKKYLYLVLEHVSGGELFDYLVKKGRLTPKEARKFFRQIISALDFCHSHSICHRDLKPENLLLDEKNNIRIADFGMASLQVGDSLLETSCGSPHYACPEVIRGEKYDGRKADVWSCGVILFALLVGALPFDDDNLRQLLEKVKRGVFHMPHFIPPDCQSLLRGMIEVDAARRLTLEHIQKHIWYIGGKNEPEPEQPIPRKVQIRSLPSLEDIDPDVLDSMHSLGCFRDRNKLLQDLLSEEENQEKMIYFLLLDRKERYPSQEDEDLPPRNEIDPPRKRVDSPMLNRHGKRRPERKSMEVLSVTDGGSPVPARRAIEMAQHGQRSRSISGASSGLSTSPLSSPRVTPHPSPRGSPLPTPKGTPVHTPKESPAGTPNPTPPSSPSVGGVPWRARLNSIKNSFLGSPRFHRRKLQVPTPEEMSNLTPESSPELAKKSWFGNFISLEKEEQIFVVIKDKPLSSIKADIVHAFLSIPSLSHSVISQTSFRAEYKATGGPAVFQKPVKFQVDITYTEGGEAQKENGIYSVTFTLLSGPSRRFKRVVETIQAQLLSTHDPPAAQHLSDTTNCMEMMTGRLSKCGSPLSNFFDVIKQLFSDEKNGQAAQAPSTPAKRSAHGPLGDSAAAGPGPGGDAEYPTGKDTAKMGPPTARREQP"}, "CHK2 (h) (human)": {"biological_target": "CHK2 (h) (human) (UniProt O96017)", "sequence (O96017 5-543 limits assumed)": "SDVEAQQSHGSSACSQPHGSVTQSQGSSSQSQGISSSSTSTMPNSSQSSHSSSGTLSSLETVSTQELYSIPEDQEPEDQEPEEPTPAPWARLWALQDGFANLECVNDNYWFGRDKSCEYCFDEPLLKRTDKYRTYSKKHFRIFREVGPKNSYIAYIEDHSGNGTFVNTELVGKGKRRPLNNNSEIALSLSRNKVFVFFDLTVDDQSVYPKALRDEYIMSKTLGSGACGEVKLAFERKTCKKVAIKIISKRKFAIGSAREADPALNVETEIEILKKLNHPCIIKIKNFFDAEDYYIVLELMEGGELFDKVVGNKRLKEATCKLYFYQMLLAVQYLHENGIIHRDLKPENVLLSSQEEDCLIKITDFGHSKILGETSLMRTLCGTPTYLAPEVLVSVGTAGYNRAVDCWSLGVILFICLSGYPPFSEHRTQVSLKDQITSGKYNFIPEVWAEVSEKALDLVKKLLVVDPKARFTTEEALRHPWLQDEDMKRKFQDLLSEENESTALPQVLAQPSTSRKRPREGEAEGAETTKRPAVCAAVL"}, "CK1γ2 (h) (human)": {"biological_target": "CK1γ2 (h) (human) (UniProt P78368)"}, "[1]": {"biological_target": "Hck (h) activated (human) (UniProt P08631)"}, "JAK2 (h) (human)": {"biological_target": "JAK2 (h) (human) (UniProt O60674)"}, "JNK2α2 (h) (human)": {"biological_target": "JNK2α2 (h) (human) (UniProt P45984)"}, "JNK3 (h) (human)": {"biological_target": "JNK3 (h) (human) (UniProt P53779)"}, "NEK2 (h) (human)": {"biological_target": "T2, NEK2 (h) (human) (UniProt P51955)", "T2 sequence (looked up)": "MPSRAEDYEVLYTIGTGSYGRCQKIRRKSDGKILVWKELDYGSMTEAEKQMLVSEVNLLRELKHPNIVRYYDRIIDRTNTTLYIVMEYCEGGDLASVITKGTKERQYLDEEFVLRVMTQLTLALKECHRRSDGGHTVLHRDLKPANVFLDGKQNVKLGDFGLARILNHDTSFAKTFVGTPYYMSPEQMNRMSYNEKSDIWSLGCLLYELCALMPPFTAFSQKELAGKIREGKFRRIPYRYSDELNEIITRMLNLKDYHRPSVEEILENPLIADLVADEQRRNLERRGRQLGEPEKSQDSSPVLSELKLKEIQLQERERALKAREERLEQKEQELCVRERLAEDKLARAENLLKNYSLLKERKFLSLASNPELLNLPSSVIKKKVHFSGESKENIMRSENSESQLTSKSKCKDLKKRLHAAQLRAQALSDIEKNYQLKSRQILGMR"}, "[2]": {"biological_target": "PDGFRα (V561D) (h) (human) (UniProt P16234)", "sequence (P16234 550-1089 V561D limits assumed)": "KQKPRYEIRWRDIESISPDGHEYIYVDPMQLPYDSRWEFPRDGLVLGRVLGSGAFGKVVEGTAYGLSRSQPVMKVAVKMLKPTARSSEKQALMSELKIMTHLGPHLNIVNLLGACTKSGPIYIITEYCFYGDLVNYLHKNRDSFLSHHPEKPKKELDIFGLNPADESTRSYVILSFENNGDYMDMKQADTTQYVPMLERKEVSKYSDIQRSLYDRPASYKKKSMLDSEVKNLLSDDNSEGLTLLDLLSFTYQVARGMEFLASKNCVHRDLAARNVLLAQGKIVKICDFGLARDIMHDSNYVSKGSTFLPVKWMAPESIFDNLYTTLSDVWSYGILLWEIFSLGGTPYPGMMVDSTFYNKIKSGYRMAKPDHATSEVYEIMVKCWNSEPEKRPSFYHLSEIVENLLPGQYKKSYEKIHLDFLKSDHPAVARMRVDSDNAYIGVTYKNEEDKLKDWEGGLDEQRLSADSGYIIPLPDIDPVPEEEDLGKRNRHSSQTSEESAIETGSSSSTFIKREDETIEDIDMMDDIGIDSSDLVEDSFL"}, "PKCβII (h) (human)": {"biological_target": "PKCβII (h) (human) (UniProt P05771)"}, "Rsk1 (h) (human)": {"biological_target": "Rsk1 (h) (human) (UniProt Q15418)", "sequence (Q15418 whole entry)": "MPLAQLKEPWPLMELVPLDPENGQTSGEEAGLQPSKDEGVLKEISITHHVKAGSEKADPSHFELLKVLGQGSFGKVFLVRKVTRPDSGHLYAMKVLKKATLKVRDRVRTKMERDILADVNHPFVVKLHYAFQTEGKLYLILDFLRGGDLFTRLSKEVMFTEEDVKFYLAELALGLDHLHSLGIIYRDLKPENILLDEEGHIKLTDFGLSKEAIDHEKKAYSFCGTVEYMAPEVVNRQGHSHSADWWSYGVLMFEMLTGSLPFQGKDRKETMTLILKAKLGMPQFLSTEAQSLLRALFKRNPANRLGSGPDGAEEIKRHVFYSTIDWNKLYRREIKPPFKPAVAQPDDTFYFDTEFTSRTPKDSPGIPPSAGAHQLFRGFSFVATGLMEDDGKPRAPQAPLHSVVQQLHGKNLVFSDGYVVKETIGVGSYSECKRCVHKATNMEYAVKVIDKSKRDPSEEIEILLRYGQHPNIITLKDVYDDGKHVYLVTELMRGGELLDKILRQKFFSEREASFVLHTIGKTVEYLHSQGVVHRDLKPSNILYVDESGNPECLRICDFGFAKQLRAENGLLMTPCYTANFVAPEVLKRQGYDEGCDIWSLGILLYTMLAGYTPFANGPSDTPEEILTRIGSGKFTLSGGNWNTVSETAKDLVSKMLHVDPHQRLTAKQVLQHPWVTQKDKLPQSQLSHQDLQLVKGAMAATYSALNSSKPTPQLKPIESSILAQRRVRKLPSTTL"}, "SGK3 (h) (human)": {"biological_target": "T3, SGK3 (h) (human) (UniProt Q96BR1)", "T3 sequence (looked up)": "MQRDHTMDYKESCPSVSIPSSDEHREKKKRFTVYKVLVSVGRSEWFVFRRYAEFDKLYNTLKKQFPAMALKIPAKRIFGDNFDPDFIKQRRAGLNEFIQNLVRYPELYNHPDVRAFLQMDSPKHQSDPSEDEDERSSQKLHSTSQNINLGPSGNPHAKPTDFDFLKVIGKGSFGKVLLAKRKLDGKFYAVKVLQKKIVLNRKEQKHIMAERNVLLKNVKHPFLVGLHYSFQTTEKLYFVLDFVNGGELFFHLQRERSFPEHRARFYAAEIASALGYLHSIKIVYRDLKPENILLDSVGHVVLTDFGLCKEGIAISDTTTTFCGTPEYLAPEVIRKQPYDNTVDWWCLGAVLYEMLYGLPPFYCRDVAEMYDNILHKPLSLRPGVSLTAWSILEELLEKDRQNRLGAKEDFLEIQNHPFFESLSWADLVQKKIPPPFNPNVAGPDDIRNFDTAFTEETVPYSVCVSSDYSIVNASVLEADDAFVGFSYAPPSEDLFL"}, "SIK (h) (human)": {"biological_target": "SIK (h) (human) (UniProt P57059)"}, "TAO2 (h) (human)": {"biological_target": "T4, TAO2 (h) (human) (UniProt Q9UL54)", "T4 sequence (looked up)": "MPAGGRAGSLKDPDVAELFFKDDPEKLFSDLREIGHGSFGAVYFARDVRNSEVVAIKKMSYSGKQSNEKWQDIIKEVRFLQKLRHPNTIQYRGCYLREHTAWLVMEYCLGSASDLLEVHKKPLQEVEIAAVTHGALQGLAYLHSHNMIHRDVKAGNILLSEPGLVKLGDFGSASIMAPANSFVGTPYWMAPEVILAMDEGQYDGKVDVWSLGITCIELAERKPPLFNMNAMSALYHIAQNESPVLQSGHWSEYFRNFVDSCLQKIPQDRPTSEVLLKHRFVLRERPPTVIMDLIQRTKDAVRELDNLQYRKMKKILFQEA"}, "ZIPK (h) (human)": {"biological_target": "ZIPK (h) (human) (UniProt O43293)"}}, "data": [{"substance": "MMI-0300 (peptide)", "values": [{"measurement": "% activity at 100 µM", "setting": "BTK(R28H) (h) (human)", "value": 74, "unit": "%"}, {"measurement": "% activity at 100 µM", "setting": "BrSK2 (h) (human)", "value": 83, "unit": "%"}, {"measurement": "% activity at 100 µM", "setting": "CHK2 (h) (human)", "value": 66, "unit": "%"}, {"measurement": "% activity at 100 µM", "setting": "CK1γ2 (h) (human)", "value": 123, "unit": "%"}, {"measurement": "% activity at 100 µM", "setting": "[1]", "value": 82, "unit": "%"}, {"measurement": "% activity at 100 µM", "setting": "JAK2 (h) (human)", "value": 133, "unit": "%"}, {"measurement": "% activity at 100 µM", "setting": "JNK2α2 (h) (human)", "value": 98, "unit": "%"}, {"measurement": "% activity at 100 µM", "setting": "JNK3 (h) (human)", "value": 89, "unit": "%"}, {"measurement": "% activity at 100 µM", "setting": "NEK2 (h) (human)", "value": 78, "unit": "%"}, {"measurement": "% activity at 100 µM", "setting": "[2]", "value": 82, "unit": "%"}, {"measurement": "% activity at 100 µM", "setting": "PKCβII (h) (human)", "value": 82, "unit": "%"}, {"measurement": "% activity at 100 µM", "setting": "Rsk1 (h) (human)", "value": 46, "unit": "%"}, {"measurement": "% activity at 100 µM", "setting": "SGK3 (h) (human)", "value": 10, "unit": "%"}, {"measurement": "% activity at 100 µM", "setting": "SIK (h) (human)", "value": 66, "unit": "%"}, {"measurement": "% activity at 100 µM", "setting": "TAO2 (h) (human)", "value": 70, "unit": "%"}, {"measurement": "% activity at 100 µM", "setting": "ZIPK (h) (human)", "value": 28, "unit": "%"}]}]}
